Residue numbers refer to the chain shown, from its start.
B1: ADI-15946 mutant Y100AA (antibody, V domains shown)
VH: EVQLVESGGGLVKPGGSLRLSCAASGFTFSNAWMSWVRQAPGKGLEWVGRIKSKTDGGTIDYAAPVKGRFTISRDDSKNTVYLQMTSLKTEDTAVYYCTTYTEDMRAFDWLLRGGETFDYWGQGTLVTVSS
VL: DIRLTQSPSSLSASVGDRVTITCRASHYISTYLNWYQQKPGKAPKLLIYAASNLQSGVPSRFSGSGFGTDFSLTISSLQPEDFATYHCQQSYSTPGRYTFGQGTKVEIK
B2: 46M1 (antibody, V domains shown)
VH: B1 VH with R106A, A107Y
VL: B1 VL
B3: ADI-15946 IgG (antibody, V domains shown)
VH: B1 VH with A107Y
VL: B1 VL

Experiments:
SUDV GP ectodomain = SUDV GP ectodomain (Sudan ebolavirus; strain not named for …, UniProt Q66814); assay: ELISA
rVSV-EBOV GP (wild type) = rVSV-EBOV GP (wild type) (Zaire ebolavirus (EBOV), UniProt Q05320); assay: ELISA

Row | Binder | binding result (SUDV GP ectodomain) | binding result (rVSV-EBOV GP (wild type))
1 | B1 | binds | –
2 | B2 | binds | –
3 | B3 | binds | binds

Source: paper PMC6402988 (Nature structural & molecular biology, 2019)
